The source of these data is patent US5066590A, “Superoxide dismutase combined with a poly(alkylene oxide)” (Ajinomoto Co., Inc., priority 1985, dated 1991).

One may read the residual activity as the share of the control activity or signal that is left under treatment.

Data set [1] deals with superoxide dismutase (Bos taurus, UniProt P00442). The data set is described as follows: SOD enzyme activity by the method of McCord et al (residual activity vs starting SOD). The class given is biochemical, bovine; human. How it is done:
(§1) The residual activity was obtained by the following method.
(§2) The concentration of each enzyme was obtained by the absorption method as mentioned above, and the residual activity was calculated from a comparison in activity after the reaction.

Data set [2] deals with superoxide dismutase. The description is as above. Type of data set: biochemical, bovine; human. How it is done: as §1, §2
A short description of data set [3]: Survival of SOD activity in the blood circulation (plasma SOD activity after i.v. infusion). Type of data set: in vivo, Wister rats. The following applies: for Half life (half survival time of SOD activity in the circulation) / Time to 30% residual activity: 20 mg SOD content/kg, femoral vein, rats. How it is done:
For each stabilized SOD obtained in the Examples, the survival time in the blood circulation was measured as follows. Four Wister rats, seven weeks old and weighing 249 to 277 g, were used for each sample. The rats were infused with 20 mg of the sample (20 mg SOD content for the modified SOD; 5 mg per rat) dissolved in a saline solution (0.5 ml per rat) per kg of body weight through the femoral vein, and samples of blood, each 0.2 ml, were withdrawn 5, 15 and 30 minutes and 1, 2, 4, 8, 24 and 48 hours after the injection. Each blood sample was centrifuged, and the SOD activity of the plasma was determined by the method of J. M. McCord et al (J. Biol. Chem.,.244, No. 22, 6049-55, 1969).

Another data set deals with Lewis-lung tumor. Description: Prevention of tumor metastasis (Lewis-lung tumor implanted in mice). The class given is in vivo, C57BL-6 mice. To be noted: for Inhibition ratio (%) (number of tumor colonies) / Inhibition ratio (%) (weight of lung tumor) / Mean number of tumor colonies / Mean weight of lung tumor: 2 mg/kg i.v. How it is done: 10^6 cells of Lewis-lung tumor were implanted onto the foot of a number of C57BL-6 mice, and the implanted tumor was removed at seventh day after the transplantation (n=7).
The modified SOD (m-SOD) obtained in Example 1 was dissolved in a saline solution (5 mg by SOD content in 1 ml saline solution). To the mice, the modified SOD solution (2 mg by SOD content per kg) was injected intravenously once a day for 5 days from the seventh day or fourteenth day after the transplantation.
On the 22nd day after the transplantation, the lungs were taken out and the number of colonies of metastasizing cells was determined. The inhibition of the metastasis was evaluated by the decrease of the number of colonies and the weight of metastasizing lung tumor.

Data set [4] concerns superoxide dismutase. To be noted: starting material as purchased; cited from earlier work.

Chain of superoxide dismutase (Bos taurus, UniProt P00442) (P00442 2-152 limits assumed): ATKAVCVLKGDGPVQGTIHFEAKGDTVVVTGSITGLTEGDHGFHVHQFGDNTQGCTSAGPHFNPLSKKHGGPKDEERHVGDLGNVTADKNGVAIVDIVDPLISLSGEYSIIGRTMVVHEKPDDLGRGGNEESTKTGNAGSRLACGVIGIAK

“Example 1: bovine SOD amide-linked to α-carboxymethyl, ω-carboxymethoxy polyoxyethylene (molecular weight about 4000), 2.4 molecules per enzyme” displayed a total activity with superoxide dismutase [1] (freeze-dried stabilized SOD) of 236000 units. The total activity in the data set with superoxide dismutase [1] (reaction mixture after completion of the reaction) was 285000 units. In the data set with superoxide dismutase [1] (reaction mixture after completion of the reaction, in comparison with the original SOD), the residual activity was determined as 95±5%. The “Residual enzyme activity (%)” value in the data set with superoxide dismutase [2] (Table 1, stabilized SOD of Examples) stood at 95%. In addition, in the data set with superoxide dismutase [2] (isolated stabilized SOD, text of Examples), the residual activity was determined as 95%. Besides, in data set [3], the “Half life (half survival time of SOD activity in the circulation)” value (“Half life” for short) was found to be 240 min and the “Time to 30% residual activity” value stood at 10 h. In addition, the “activity in the blood circulation with time” value in data set [3] (FIG. 5) is “rapidly reduces after a few hours from the adminstration, and then it reduces slowly”. In addition, in the data set with Lewis-lung tumor (5 injections after 7th day), the “Inhibition ratio (%) (number of tumor colonies)” value stood at 65%, the “Inhibition ratio (%) (weight of lung tumor)” value is reported as 66%, the “Mean number of tumor colonies” value is 10.5 and the “Mean weight of lung tumor” value was 0.15 g. In the data set with Lewis-lung tumor (5 injections after 14th day), the “Inhibition ratio (%) (number of tumor colonies)” value is recorded as 72%, the “Inhibition ratio (%) (weight of lung tumor)” value is 77%, the “Mean number of tumor colonies” value amounted to 8.4 and the “Mean weight of lung tumor” value stood at 0.10 g. Further, in the data set with Lewis-lung tumor ("decreased below 40%"), the “number of colonies as compared to the non-treated mice” value is on record as “below 40%” and the “weight of tumor as compared to the non-treated mice” value was “below 40%”.

For the substance “bovine SOD: Superoxide dismutase derived from a bovine blood produced by Toyobo Co., Japan”, in data set [3], the “Half life” value is 6 min and the “Time to 30% residual activity” value worked out at 0.15 h. Also, the “specific activity of purchased SOD” value in the data set on superoxide dismutase [4] is recorded as 3000 units/mg.

Turning to “human SOD: SOD derived from human erythrocyte purchased from Sigma Co.”, in data set [3], the “Half life” value worked out at 6 min and the “Time to 30% residual activity” value turned out to be 0.15 h. The “specific activity of purchased SOD” value in the data set with superoxide dismutase [4] is recorded as 2300 units/mg.
